For the test, the target named is T1, ovalbumin (UniProt P01012 2-386).
T1 sequence (looked up): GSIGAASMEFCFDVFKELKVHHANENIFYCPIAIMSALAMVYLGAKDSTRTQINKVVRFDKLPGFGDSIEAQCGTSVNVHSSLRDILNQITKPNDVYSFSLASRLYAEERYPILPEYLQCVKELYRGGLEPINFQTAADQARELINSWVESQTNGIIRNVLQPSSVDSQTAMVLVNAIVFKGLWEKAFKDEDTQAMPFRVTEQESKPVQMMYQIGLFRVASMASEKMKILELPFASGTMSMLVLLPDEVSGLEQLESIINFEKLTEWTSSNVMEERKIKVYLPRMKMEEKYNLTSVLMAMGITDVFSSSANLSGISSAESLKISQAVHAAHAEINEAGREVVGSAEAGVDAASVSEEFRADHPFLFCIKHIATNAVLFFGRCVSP
Briefly: phage ELISA, anti-HA or anti-M13 detection. On the technique in general: An ELISA detects its analyte on a solid surface through an enzyme-linked reagent.

B1: 2G12 domain exchanged Fab fragment displayed on phage, expressed from the 2G12 pCAL G13 vector (SEQ ID NO: 11) (Fab, not shown: small tags and cut ends; large carriers)
heavy 1: EVQLVESGGGLVKAGGSLILSCGVSNFRISAHTMNWVRRVPGGGLEWVASISTSSTYRDYADAVKGRFTVSRDDLEDFVYLQMHKMRVEDTAIYYCARKGSDRLSDNDPFDAWGPGTVVTVSPASTKGPSVFPLAPSSKSTSGGTAALGCLVKDYFPEPVTVSWNSGALTSGVHTFPAVLQSSGLYSLSSVVTVPSSSLGTQTYICNVNHKPSNTKVDKKVEPKSCLRYPYDVPDYA
heavy 2: EVQLVESGGGLVKAGGSLILSCGVSNFRISAHTMNWVRRVPGGGLEWVASISTSSTYRDYADAVKGRFTVSRDDLEDFVYLQMHKMRVEDTAIYYCARKGSDRLSDNDPFDAWGPGTVVTVSPASTKGPSVFPLAPSSKSTSGGTAALGCLVKDYFPEPVTVSWNSGALTSGVHTFPAVLQSSGLYSLSSVVTVPSSSLGTQTYICNVNHKPSNTKVDKKVEPKSCLRYPYDVPDYA
light: AGVVMTQSPSTLSASVGDTITITCRASQSIETWLAWYQQKPGKAPKLLIYKASTLKTGVPSRFSGSGSGTEFTLTISGLQFDDFATYHCQHYAGYSATFGQGTRVEIKRTVAAPSVFIFPPSDEQLKSGTASVVCLLNNFYPREAKVQWKVDNALQSGNSQESVTEQDSKDSTYSLSSTLTLSKADYEKHKVYACEVTHQGLSSPVTKSFNRGEC
notes: also called 2G12 Fab; 2G12 alone
For the molecule B1, the binding result is recorded as “no binding”.

B2: 2G12 domain exchanged Fab fragment displayed on phage, expressed from the 2G12 pCAL A1 vector (SEQ ID NO: 217) (Fab)
heavy 1: EVQLVESGGGLVKAGGSLILSCGVSNFRISAHTMNWVRRVPGGGLEWVASISTSSTYRDYADAVKGRFTVSRDDLEDFVYLQMHKMRVEDTAIYYCARKGSDRLSDNDPFDAWGPGTVVTVSPASTKGPSVFPLAPSSKSTSGGTAALGCLVKDYFPEPVTVSWNSGALTSGVHTFPAVLQSSGLYSLSSVVTVPSSSLGTQTYICNVNHKPSNTKVDKKVEPKSCLR
heavy 2: EVQLVESGGGLVKAGGSLILSCGVSNFRISAHTMNWVRRVPGGGLEWVASISTSSTYRDYADAVKGRFTVSRDDLEDFVYLQMHKMRVEDTAIYYCARKGSDRLSDNDPFDAWGPGTVVTVSPASTKGPSVFPLAPSSKSTSGGTAALGCLVKDYFPEPVTVSWNSGALTSGVHTFPAVLQSSGLYSLSSVVTVPSSSLGTQTYICNVNHKPSNTKVDKKVEPKSCLR
light: AGVVMTQSPSTLSASVGDTITITCRASQSIETWLAWYQQKPGKAPKLLIYKASTLKTGVPSRFSGSGSGTEFTLTISGLQFDDFATYHCQHYAGYSATFGQGTRVEIKRTVAAPSVFIFPPSDEQLKSGTASVVCLLNNFYPREAKVQWKVDNALQSGNSQESVTEQDSKDSTYSLSSTLTLSKADYEKHKVYACEVTHQGLSSPVTKSFNRGEC
Regarding B2, the binding result is on record as “no binding”.

The record behind these values is US20100081575A1 (published 2010).
